From article PMC9263169, “Aptamer-antibody hybrid ELONA that uses hybridization chain reaction to detect a urinary biomarker EN2 for bladder and prostate cancer”

Experiments:
[1] = target: T1, EN2 (Engrailed-2), recombinant (human, UniProt P19622 1-333); assay: magnetic-bead fluorescence assay (His-EN2 on NTA beads); 5 mM Mg2+; 20 mM Tris-HCl, 50 mM NaCl, 5 mM KCl, 5 mM MgCl2, pH 8.0, room temperature, 1 h; details: protein: recombinant; tags: N-terminal His (pET28a); label: 5'-FAM
T1 sequence: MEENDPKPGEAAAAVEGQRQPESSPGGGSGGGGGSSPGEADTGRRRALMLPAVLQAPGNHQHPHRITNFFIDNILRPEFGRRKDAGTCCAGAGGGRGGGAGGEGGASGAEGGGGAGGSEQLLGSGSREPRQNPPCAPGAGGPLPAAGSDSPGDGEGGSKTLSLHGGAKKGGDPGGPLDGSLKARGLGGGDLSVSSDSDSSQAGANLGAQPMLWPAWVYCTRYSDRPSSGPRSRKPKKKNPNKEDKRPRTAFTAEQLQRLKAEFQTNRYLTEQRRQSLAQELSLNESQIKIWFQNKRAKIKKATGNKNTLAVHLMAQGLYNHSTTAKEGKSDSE

[2] = target: T1, EN2 (Engrailed-2), recombinant; assay: plate fluorescence binding (EN2 immobilized); signal saturates at 250 nM EN2; 20 mM Tris-HCl, 50 mM NaCl, 5 mM KCl, 5 mM MgCl2, pH 8.0, room temperature, 1 h; details: protein: recombinant; tags: N-terminal His (pET28a); label: 5'-FAM; hairpin

Question: For AGCGGATCCGAGGTGAGGAGCGCCGGTGAGACTCCTTCATTCTATCTGCT (structured_DNA) [EBA (trimmed H90)], which Kd [1] is on record?
Answer: The Kd was 8.26 nM.

Question: Does CGCATAATTACCTCCAGAAGGAGAGGTAATTATGCG (structured_DNA) [EN2 motif hairpin DNA] bind [2]?
Answer: Result: binds
